Molecular target: T1, Human CD4-Fc (human, UniProt P01730 26-390)
T1 construct: not shown: Fc
Experiment: BLI; human CD4-Fc captured; binder-mouse Fc homodimer at 125 nM

B1: Binder 279 expressed as homodimer with mouse Fc (Fc fusion)
chain: QVQLVQSGAEVKKPGASVKVSCKASGGTFSSYAISWVRQAPGQGLEWMGWINPNSGGTNYAQKFQGRVTMTRDTSTSTVYMELSSLRSEDTAVYYCARDGYSGSYSDWGQGTLVTVSSGGGGSGGGGSGGGGSDIVMTQSPDSLAVSLGERATINCKSSQSVLSSSYNKNYLAWYQQKPGQPPKLLIYWASTRESGVPDRFSGSGSGTDFTLTISSLQAEDVAVYYCQQYYSTPWTFGQGTKVEIK
notes: not shown: mouse Fc
Binder B1 has a Kd of 5 nM, a koff of 0.00021 s⁻¹ and a kon of 41700 M⁻¹ s⁻¹.

Reference: patent US20250281536A1 (published 2025)
